Consider two molecules from patent US20190077867A1 (REYOUNG SUZHOU BIOLOGY SCIENCE AND TECHNOLOGY, published 2019).

In assay [1] the target is T1, hPD-L1-Fc (human, UniProt Q9NZQ7 19-238, limits assumed).
T1 construct: Plate-coated antigen in the Embodiment 1 ELISAs
Put plainly: ELISA on coated hPD-L1-Fc, goat anti-mouse-HRP. Here is the method:
A. ELISA Binding Activity [0084] Envelop hPD-L1-Fc on the plate, add gradient diluted antibody, incubate and wash it, and then add goat anti-mouse-HRP, perform coloration, and draw up the reaction curve by fitting of readings (the results as shown in FIG. 1) to calculate the EC50 value.
Background: ELISA stands for enzyme-linked immunosorbent assay.

Assay [2] has as its target T2, hPD-L1 on hPD-L1-Fc over-expressed cells (human, UniProt Q9NZQ7 19-290).
T2 construct: whole, on cells; also called over-expressed hPD-L1-Fc cells
Put plainly: cell binding on hPD-L1-Fc over-expressed cells, anti-mouse-EU fluorescence. An excerpt: C. Cell Binding Activity [0088] Lay hPD-L1-Fc over-expressed cells on the cell plate for culture inspection one day ahead of schedule. After closure on the next day, add gradient-diluted antibody, then anti-mouse-EU. And then obtain the readings.

The target in assay [3] is T1, hPD-L1-Fc. As to the kind of experiment: competition ELISA: antibody pre-incubated with hPD-L1-Fc-Biotin, added to a plate printed as coated with hPD-L1-Fc, SA-HRP. Here is the method:
B. ELISA Inhibitory Activity [0086] Incubate the gradient diluted antibody and a certain concentration of hPD-L1-Fc-Biotin, then add the mixture to the plate enveloped with hPD-L1-Fc. Add SA-HRP to the plate after incubating and washing. Then perform coloration. Draw up the reaction curve by fitting of readings (see FIG. 2 for results) to calculate the IC50 value.

Assay [4] deals with T2, hPD-L1 on hPD-L1-Fc over-expressed cells. Put plainly: cell inhibition assay: cells printed as PD1-27 (PD1 over-expressed CHO-K1), antibody, PD1-Fc-Biotin as competitor, Europium-labeled streptavidin. An excerpt: D. Cell Inhibitory Activity [0090] Lay PD1-27 (PD1 over-expressed CHO-K1 stable transfected cells) on the cell plate for culture inspection one day ahead of schedule. After closure on the next day, add gradient-diluted antibody, then PD1-Fc-Biotin, then Europium-labeled streptavidin, and obtain the readings.

Assay [5] has as its target T3, B7-1 (Homo sapiens (Human), UniProt P33681 35-242).
T3 construct: probably human
T3 sequence: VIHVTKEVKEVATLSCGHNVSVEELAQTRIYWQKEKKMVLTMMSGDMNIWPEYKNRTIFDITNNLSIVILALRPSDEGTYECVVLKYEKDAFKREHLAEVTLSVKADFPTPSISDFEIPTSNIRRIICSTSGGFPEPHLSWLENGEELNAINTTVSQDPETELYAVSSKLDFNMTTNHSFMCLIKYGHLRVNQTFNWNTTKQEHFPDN
As to the kind of experiment: ELISA on coated protein, goat anti-human FAB-HRP, OD450. Here is the method:
The binding of B7 family members B7-1, B7-2 to PD-L2 protein, and the binding of mouse, M. fascicularis and human PD-L1 protein to humanized antibody anti-PD-L1-1 are tested. Different proteins are stored at […] in enveloping buffer at 4° C. overnight. Remove the solution in wells the next day and wash with PBST for twice. Then add 1% BSA, seal at 37° C. for 1 hour, then wash with PBST for twice. Add 0.5 μg/mL antibody samples, incubate for 1 hour, and wash with PBST for three times. Dilute with goat anti-human FAB-HRP at ratio of 1:10000, incubate for 1 hour at 37 C, and wash with PBST for three times. Add TMB for 15 min coloration, stop the reaction with 0.5M H₂SO₄ and read out the absorbance at 450 nm.

Assay [6] has as its target T4, recombinant human PD-L1 expressed on the surface of CHO cells (human, UniProt Q9NZQ7 19-290).
T4 construct: whole, on cells; also called CHO cells transfected by PD-L1; CHO cells with PD-L1 expressed on the surface
Put plainly: cell ELISA on CHO cells expressing human PD-L1, anti-human-Eu fluorescence. The method, then: A Chinese hamster ovary (CHO) cell line expressing recombinant human PD-L1 on cell surface is constructed and its binding specificity to humanized antibody anti-PD-L1-1 is determined by ELISA assay. The cells are overlaid on PD-L1 the day before the test, and 1/200 cells are filled with T75 bottles on each well. Then add 1% BSA and seal at 37° C. for 1 hour. The antibody is diluted three folds starting from 5 μg/mL for 8 concentration gradients, incubated at 25° C. for 1 hour, and washed with PBST for one time. The volume of 50 ng/mL anti-human-Eu added to each well is 100 μL, with reaction time of 0.5 hours at 25° C., and washing with PBS for one time. Add fluorescence enhancement liquid and read values at exciting light 337 nm/emitted light 620 nm.

For assay [7], the target named is T5, recombinant human PD-L1 fusion protein (human, UniProt Q9NZQ7 19-238).
T5 construct: This may be the same reagent as hPD-L1-Fc
T5 sequence (Q9NZQ7 19-238): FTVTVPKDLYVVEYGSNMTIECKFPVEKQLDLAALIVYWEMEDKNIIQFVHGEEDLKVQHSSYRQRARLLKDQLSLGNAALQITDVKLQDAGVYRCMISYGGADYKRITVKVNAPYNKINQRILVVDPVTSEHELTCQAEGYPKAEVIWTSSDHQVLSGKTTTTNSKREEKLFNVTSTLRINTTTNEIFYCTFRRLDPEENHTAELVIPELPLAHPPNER
Put plainly: ELISA on coated recombinant human PD-L1 fusion protein, goat anti-human FAB-HRP. The method, then: The recombinant human PD-L1 fusion protein of 0.5 μg/mL is stored at 4° C. overnight in enveloping buffer. Remove the solution in wells the next day and wash with PBST for twice. Then add 1% BSA and seal at 37° C. for 1 hour. Wash with PBST for twice. The antibody is diluted three folds starting from 5 μg/mL for 8 concentration gradients, incubated at 25° C. for 1 hour, and washed with PBST for three time. Dilute with goat anti-human FAB-HRP at ratio of 1:10000, incubate for 1 hour at 37 C, and wash with PBST for three times. Add TMB for 15 min coloration, stop the reaction with 0.5M H₂SO₄ and read out the absorbance at 450 nm.

For assay [8], the target named is T5, recombinant human PD-L1 fusion protein. Put plainly: competition ELISA on coated recombinant human PD-L1 fusion protein, PD1-Fc-Biotin as competitor, streptavidin-HRP. Here is the method: The recombinant human PD-L1 fusion protein of 0.5 μg/mL is stored at 4° C. overnight in enveloping buffer. Remove the solution in wells the next day and wash with PBST for twice. Then add 1% BSA, seal at 37° C. for 1 hour, then wash with PBST for twice. The antibody is diluted 2.5 folds starting from 10 μg/mL for 8 concentration gradients, mixed with same volume of 1 μg/mL PD1-Fc-Biotin, incubated at 25° C. for 1 hour, and washed with PBST for one time. Incubate with goat streptavidin-HRP at ratio of 1:10000 for 1 hour at 37 C, and wash with PBST for three times. Add TMB for 15 min coloration, stop the reaction with 0.5M H₂SO₄ and read out the absorbance at 450 nm.

The target is the same in assay [9]. As to the kind of experiment: ELISA, recombinant human PD-L1 fusion protein coated, antibody after 1 day in monkey serum at 37 °C, goat anti-human FAB-HRP, OD450. Here is the method:
(§1) The recombinant human PD-L1 fusion protein is stored at the concentration of 0.5 μg/mL at 4° C. overnight in enveloping buffer. Remove the solution in wells the next day and wash with PBST for twice. Then add 1% BSA, seal at 37° C. for 1 hour, then wash with PBST for twice. The stable antibody samples are diluted three folds starting from 1 μg/mL for 8 concentration gradients, incubated at 37° C. for 1 hour, and washed with PBST for three times. Dilute with goat anti-human FAB-HRP at ratio of 1:10000, incubate for 1 hour at 37 C, and wash with PBST for three times. Add TMB for 15 min coloration, stop the reaction with 0.5M H₂SO₄ and read out the absorbance at 450 nm.

The target is the same in assay [10]. Put plainly: ELISA, recombinant human PD-L1 fusion protein coated, antibody after 0 days in monkey serum at 37 °C, goat anti-human FAB-HRP, OD450. The method, then:
as §1

The target is the same in assay [11]. As to the kind of experiment: ELISA, recombinant human PD-L1 fusion protein coated, antibody after 4 days in monkey serum at 37 °C, goat anti-human FAB-HRP, OD450. The method, then: as §1
Assay [12] has the same target. Put plainly: ELISA, recombinant human PD-L1 fusion protein coated, antibody after 7 days in monkey serum at 37 °C, goat anti-human FAB-HRP, OD450. The method, then: as §1

T2 sequence (Q9NZQ7 19-290): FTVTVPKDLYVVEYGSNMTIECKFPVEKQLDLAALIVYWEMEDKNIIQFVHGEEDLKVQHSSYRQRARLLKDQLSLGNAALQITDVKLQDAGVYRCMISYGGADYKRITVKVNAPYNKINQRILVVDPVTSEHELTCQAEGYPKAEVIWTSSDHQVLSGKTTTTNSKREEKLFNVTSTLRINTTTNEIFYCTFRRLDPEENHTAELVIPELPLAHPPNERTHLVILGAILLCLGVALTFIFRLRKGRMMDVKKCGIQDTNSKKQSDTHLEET
T1 sequence (Q9NZQ7 19-238 limits assumed): as the sequence (Q9NZQ7 19-238) above
T4 sequence (Q9NZQ7 19-290): as the sequence (Q9NZQ7 19-290) above

B1: mouse anti-PD-L1 (antibody, V domains shown)
VH: KVQLQQSGAELVKPGASVKLSCKASGYTFTKYIIHWIKQRSGQGLEWIGWFYPGSGNIRYNEKIKGKATLTADKSSSTVYMELSGLTSEDSAVYFCARHGELGGGYFFDYWGQGTTLTVSS
VL: QIVLSQSPTILSASPGEKVTMTCRASSSVSNIHWYQQKTGSSPKPWIYATSNLASGAPVRFSGSGSGTSYSLTISRVEAEDAATYYCQQWSSNPLTFGPGTKLELKR
notes: also called mouse PD-L1 antibody; mouse anti-PD-L1 monoclonal antibody
Usually EC50 stands for the midpoint of the concentration-response curve. Usually IC50 stands for the midpoint of a concentration-inhibition curve. As for B1, the EC50 in [1] came out at 0.00167 µg/mL; in assay [2], 0.0303 µg/mL. The IC50 was determined as 0.86 nM in assay [3] and 0.638 µg/mL in assay [4].

B2: humanized antibody anti-PD-L1-1 (antibody, V domains shown)
VH: EVQLVQSGAEVKKPGASVKVSCKASGYTFTKYIIHWVRQAPGQGLEWMGWFYPGSGNIRYNEKIKGRVTMTRDTSTSTVYMELSSLRSEDTAVYYCARHGELGGGYFFDYWGQGTTVTVSS
VL: DIQLTQSPSFLSASVGDRVTITCRASSSVSNIHWYQQKPGKAPKPWIYATSNLASGVPSRFSGSGSGTEFTLTISSLQPEDFATYYCQQWSSNPLTFGQGTKLEIKR
notes: Expressed in CHO-KSM4 cells; also called humanized PD-L1 antibody
One may read the EC50 (read off the curve) as the concentration needed to bring the measured effect to its halfway point. For the molecule B2, the binding result in assay [5] is “no binding (tested: 0.5 µg/mL antibody)”. The EC50 in assay [6] worked out at 0.0935 µg/mL; in assay [7], 0.0195 µg/mL. The IC50 in [8] came out at 0.0432 µg/mL. For the same molecule, the “EC50 (read off the curve)” value in assay [9], in [10], in assay [11] and in assay [12] was around 0.04 µg/mL throughout.
